Article PMC10760178

Biological target: Catabolite Repressor Activator protein (Cra), wild-type, untagged (E. coli) (UniProt P0ACP1)
Test: BLI

Chain of UniProt P0ACP1 (P0ACP1 whole entry): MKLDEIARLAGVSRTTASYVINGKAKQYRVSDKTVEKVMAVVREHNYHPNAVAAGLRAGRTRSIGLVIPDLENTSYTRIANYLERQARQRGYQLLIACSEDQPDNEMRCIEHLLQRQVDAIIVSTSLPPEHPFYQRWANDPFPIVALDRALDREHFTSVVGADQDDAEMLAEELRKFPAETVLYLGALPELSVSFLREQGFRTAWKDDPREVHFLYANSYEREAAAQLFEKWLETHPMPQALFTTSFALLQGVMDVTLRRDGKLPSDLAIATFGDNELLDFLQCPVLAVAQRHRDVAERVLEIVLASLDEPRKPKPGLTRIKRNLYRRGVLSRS

Substance “His-tagged FruK (pET3a) for BLI (from UniProt P0AEW9 1-312) (enzyme)” has a Kd of 2.1 nM.
